Assay results reported in PMC9482650, “Quantitative fragmentomics allow affinity mapping of interactomes” (Nature Communications, 2022).

T1: DLG3_1, Q92796
T1 sequence (Q92796 125-227, limits assumed, looked up): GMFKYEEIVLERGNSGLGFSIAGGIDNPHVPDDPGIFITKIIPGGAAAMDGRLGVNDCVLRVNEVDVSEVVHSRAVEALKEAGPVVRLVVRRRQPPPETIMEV

T2: FRMPD1, Q5SYB0
T2 sequence (Q5SYB0 52-145, limits assumed, looked up): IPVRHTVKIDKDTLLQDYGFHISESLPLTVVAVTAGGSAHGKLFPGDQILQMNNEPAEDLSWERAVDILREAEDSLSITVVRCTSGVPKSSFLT

T3: LIN7B, Q9HAP6
T3 sequence (Q9HAP6 88-185, limits assumed, looked up): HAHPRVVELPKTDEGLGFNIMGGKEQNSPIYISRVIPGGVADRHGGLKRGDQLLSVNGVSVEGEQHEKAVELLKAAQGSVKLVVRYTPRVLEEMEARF

T4: LNX2_2, Q8N448
T4 sequence (Q8N448 334-432, limits assumed, looked up): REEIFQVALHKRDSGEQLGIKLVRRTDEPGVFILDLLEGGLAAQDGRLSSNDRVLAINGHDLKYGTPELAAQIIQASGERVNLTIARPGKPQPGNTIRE

T5: MPP2, Q14168
T5 sequence (Q14168 180-250, limits assumed, looked up): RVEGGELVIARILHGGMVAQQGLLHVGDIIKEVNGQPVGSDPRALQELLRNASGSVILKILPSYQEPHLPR

T6: PCLO, Q9Y6V0
T6 sequence (Q9Y6V0 4491-4600, limits assumed, looked up): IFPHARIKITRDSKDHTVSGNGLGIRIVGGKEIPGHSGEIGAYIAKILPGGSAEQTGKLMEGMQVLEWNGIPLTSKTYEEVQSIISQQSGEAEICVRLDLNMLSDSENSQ

T7: PDZRN3_1, Q9UPQ7
T7 sequence (Q9UPQ7 244-349, limits assumed, looked up): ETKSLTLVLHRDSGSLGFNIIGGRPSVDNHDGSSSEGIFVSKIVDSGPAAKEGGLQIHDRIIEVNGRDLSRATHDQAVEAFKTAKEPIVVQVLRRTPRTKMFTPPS

T8: RHPN1, Q8TCX5
T8 sequence (Q8TCX5 508-602, limits assumed, looked up): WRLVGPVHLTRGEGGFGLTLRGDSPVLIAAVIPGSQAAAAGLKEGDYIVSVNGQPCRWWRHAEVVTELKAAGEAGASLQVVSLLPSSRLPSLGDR

T9: SNTA1, Q13424
T9 sequence (Q13424 82-180, limits assumed, looked up): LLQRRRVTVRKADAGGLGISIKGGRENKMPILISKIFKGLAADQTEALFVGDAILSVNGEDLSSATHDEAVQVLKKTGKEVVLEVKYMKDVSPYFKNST

T10: SNTG2, Q9NY99
T10 sequence (Q9NY99 68-166, limits assumed, looked up): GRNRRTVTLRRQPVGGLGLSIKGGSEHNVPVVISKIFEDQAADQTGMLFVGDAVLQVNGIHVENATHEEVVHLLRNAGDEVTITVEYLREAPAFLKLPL

T11: TX1BP3, O14907
T11 sequence (O14907 10-122, limits assumed, looked up): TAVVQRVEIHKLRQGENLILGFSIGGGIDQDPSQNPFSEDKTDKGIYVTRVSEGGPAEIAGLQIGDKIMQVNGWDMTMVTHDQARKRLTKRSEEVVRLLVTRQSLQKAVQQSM


How the values were obtained:
Assay in all cases: holdup assay
Set-up in all cases: key: below the threshold = too weak to quantify, mostly under pKd 3.1 to 4
Conditions in all cases: plain residues with an end cap or a label only (N-terminal biotin on a linker: ado-ado)
DLG3_1, Q92796 = target: T1, DLG3_1, Q92796
DLG4_2, P78352 = target: DLG4_2, P78352
DLG4_3, P78352 = target: DLG4_3, P78352
FRMPD1, Q5SYB0 = target: T2, FRMPD1, Q5SYB0
FRMPD2_1, Q68DX3 = target: FRMPD2_1, Q68DX3
GRIP2_3, Q9C0E4 = target: GRIP2_3, Q9C0E4
HTRA1, Q92743 = target: HTRA1, Q92743
HTRA2, O43464 = target: HTRA2, O43464
IL16_1, Q14005 = target: IL16_1, Q14005
IL16_3, Q14005 = target: IL16_3, Q14005
IL16_4, Q14005 = target: IL16_4, Q14005
Inadl_4, Q8NI35 = target: Inadl_4, Q8NI35
Inadl_8, Q8NI35 = target: Inadl_8, Q8NI35
LIMK2, P53671 = target: LIMK2, P53671
LIN7B, Q9HAP6 = target: T3, LIN7B, Q9HAP6
LNX2_2, Q8N448 = target: T4, LNX2_2, Q8N448
MPP2, Q14168 = target: T5, MPP2, Q14168
NHERF4_1, Q86UT5-2 = target: NHERF4_1, Q86UT5-2
PARD3_3, Q8TEW0 = target: PARD3_3, Q8TEW0
PCLO, Q9Y6V0 = target: T6, PCLO, Q9Y6V0
PDLIM1, O00151 = target: PDLIM1, O00151
PDZRN3_1, Q9UPQ7 = target: T7, PDZRN3_1, Q9UPQ7
RHPN1, Q8TCX5 = target: T8, RHPN1, Q8TCX5
SNTA1, Q13424 = target: T9, SNTA1, Q13424
SNTG2, Q9NY99 = target: T10, SNTG2, Q9NY99
SNX27, Q96L92 = target: SNX27, Q96L92
TX1BP3, O14907 = target: T11, TX1BP3, O14907

Chain of IL16_3, Q14005 (Q14005 1107-1207): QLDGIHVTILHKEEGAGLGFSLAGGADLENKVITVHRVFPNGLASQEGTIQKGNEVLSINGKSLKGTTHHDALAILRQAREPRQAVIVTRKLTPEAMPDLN
Chain of PARD3_3, Q8TEW0 (Q8TEW0 582-685): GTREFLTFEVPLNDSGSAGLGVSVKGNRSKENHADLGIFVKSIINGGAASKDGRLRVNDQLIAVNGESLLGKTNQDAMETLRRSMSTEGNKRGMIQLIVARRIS
Chain of IL16_1, Q14005 (Q14005 210-306): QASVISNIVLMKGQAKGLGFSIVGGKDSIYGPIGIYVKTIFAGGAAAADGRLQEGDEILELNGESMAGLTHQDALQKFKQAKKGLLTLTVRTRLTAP
Chain of PDLIM1, O00151 (O00151 1-87): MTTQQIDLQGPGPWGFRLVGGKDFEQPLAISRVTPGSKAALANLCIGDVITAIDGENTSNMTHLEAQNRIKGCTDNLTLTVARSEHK
Chain of FRMPD2_1, Q68DX3 (Q68DX3 770-861): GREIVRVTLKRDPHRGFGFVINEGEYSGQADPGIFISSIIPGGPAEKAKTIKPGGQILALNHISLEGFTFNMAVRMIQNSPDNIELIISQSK
Chain of LIMK2, P53671 (P53671 143-248): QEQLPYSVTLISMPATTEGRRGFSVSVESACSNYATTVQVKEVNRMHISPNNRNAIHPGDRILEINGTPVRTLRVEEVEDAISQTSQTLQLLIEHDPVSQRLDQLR
Chain of DLG4_3, P78352 (P78352 306-403): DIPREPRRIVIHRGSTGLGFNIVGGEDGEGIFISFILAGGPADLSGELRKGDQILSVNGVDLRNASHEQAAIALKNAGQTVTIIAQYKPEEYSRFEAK
Chain of HTRA1, Q92743 (Q92743 360-477): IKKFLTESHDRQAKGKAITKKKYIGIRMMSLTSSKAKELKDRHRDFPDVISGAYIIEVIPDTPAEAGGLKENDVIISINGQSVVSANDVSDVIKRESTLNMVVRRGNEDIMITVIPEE
Chain of HTRA2, O43464 (O43464 355-458): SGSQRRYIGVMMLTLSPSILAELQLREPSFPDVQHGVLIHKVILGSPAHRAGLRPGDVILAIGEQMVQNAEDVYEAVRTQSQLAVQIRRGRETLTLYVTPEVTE
Chain of GRIP2_3, Q9C0E4 (Q9C0E4 238-339): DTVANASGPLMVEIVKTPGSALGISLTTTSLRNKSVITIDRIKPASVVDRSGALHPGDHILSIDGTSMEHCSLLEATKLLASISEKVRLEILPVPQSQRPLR
Chain of IL16_4, Q14005 (Q14005 1229-1329): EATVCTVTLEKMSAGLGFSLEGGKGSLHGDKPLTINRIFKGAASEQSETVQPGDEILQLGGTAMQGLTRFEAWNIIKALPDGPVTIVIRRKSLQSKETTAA
Chain of Inadl_8, Q8NI35 (Q8NI35 1425-1530): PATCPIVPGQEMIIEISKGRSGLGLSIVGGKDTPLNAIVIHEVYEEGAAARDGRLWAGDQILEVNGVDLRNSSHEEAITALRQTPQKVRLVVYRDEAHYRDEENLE
Chain of Inadl_4, Q8NI35 (Q8NI35 547-651): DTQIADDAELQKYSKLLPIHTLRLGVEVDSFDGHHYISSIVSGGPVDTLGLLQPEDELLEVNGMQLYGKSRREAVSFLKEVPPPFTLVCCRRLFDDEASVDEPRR
Chain of DLG4_2, P78352 (P78352 155-259): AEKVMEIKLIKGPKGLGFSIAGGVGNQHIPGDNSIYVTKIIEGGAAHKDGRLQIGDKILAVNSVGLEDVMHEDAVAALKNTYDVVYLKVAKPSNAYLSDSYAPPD
Chain of NHERF4_1, Q86UT5-2 (Q86UT5 other isoform, or with tags, fused parts or gaps): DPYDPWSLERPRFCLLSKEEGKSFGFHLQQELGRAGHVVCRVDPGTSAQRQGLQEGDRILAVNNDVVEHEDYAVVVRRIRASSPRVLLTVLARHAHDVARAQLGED

Row | Binder | pKd (DLG3_1, Q92796) | pKd (DLG4_2, P78352) | pKd (DLG4_3, P78352) | pKd (FRMPD1, Q5SYB0) | pKd (FRMPD2_1, Q68DX3) | pKd (GRIP2_3, Q9C0E4) | pKd (HTRA1, Q92743) | pKd (HTRA2, O43464) | pKd (IL16_1, Q14005) | pKd (IL16_3, Q14005) | pKd (IL16_4, Q14005) | pKd (Inadl_4, Q8NI35) | pKd (Inadl_8, Q8NI35) | pKd (LIMK2, P53671) | pKd (LIN7B, Q9HAP6) | pKd (LNX2_2, Q8N448) | pKd (MPP2, Q14168) | pKd (NHERF4_1, Q86UT5-2) | pKd (PARD3_3, Q8TEW0) | pKd (PCLO, Q9Y6V0) | also measured
1 | NVYGTESVKI [GRIA3, P42263] | below the threshold | below the threshold | below the threshold | below the threshold | below the threshold | below the threshold | 3.98 | below the threshold | below the threshold | below the threshold | below the threshold | below the threshold | below the threshold | below the threshold | below the threshold | 3.74 | below the threshold | 3.57 | 3.73 | below the threshold | pKd (PDLIM1, O00151): below the threshold; pKd (PDZRN3_1, Q9UPQ7): below the threshold; pKd (RHPN1, Q8TCX5): below the threshold; pKd (SNTA1, Q13424): below the threshold; pKd (SNTG2, Q9NY99): below the threshold; pKd (SNX27, Q96L92): below the threshold; pKd (TX1BP3, O14907): below the threshold
2 | PMESGICTIV [TTC24, A2A3L6] | 4.18 | 4.95 | below the threshold | below the threshold | 3.56 | below the threshold | 5.07 | 4.18 | 3.88 | below the threshold | 3.67 | below the threshold | 4.19 | below the threshold | below the threshold | 5.56 | below the threshold | 4.2 | 4.29 | below the threshold | pKd (PDLIM1, O00151): below the threshold; pKd (PDZRN3_1, Q9UPQ7): 3.48; pKd (RHPN1, Q8TCX5): 4.85; pKd (SNTA1, Q13424): 4.61; pKd (SNTG2, Q9NY99): 4.1; pKd (SNX27, Q96L92): 4.63; pKd (TX1BP3, O14907): below the threshold
3 | SRPRPDDLEI [GJA1, P17302] | below the threshold | below the threshold | below the threshold | below the threshold | below the threshold | below the threshold | below the threshold | below the threshold | below the threshold | below the threshold | below the threshold | below the threshold | below the threshold | below the threshold | below the threshold | below the threshold | below the threshold | below the threshold | 3.74 | below the threshold | pKd (PDLIM1, O00151): below the threshold; pKd (PDZRN3_1, Q9UPQ7): below the threshold; pKd (RHPN1, Q8TCX5): below the threshold; pKd (SNTA1, Q13424): below the threshold; pKd (SNTG2, Q9NY99): below the threshold; pKd (SNX27, Q96L92): below the threshold; pKd (TX1BP3, O14907): below the threshold
4 | GCQGETEDVL [PTH2R, P49190] | below the threshold | below the threshold | below the threshold | below the threshold | below the threshold | below the threshold | 4.14 | below the threshold | below the threshold | below the threshold | below the threshold | below the threshold | below the threshold | below the threshold | below the threshold | below the threshold | below the threshold | 3.85 | 4.32 | below the threshold | pKd (PDLIM1, O00151): below the threshold; pKd (PDZRN3_1, Q9UPQ7): below the threshold; pKd (RHPN1, Q8TCX5): below the threshold; pKd (SNTA1, Q13424): 3.9; pKd (SNTG2, Q9NY99): below the threshold; pKd (SNX27, Q96L92): 4.52; pKd (TX1BP3, O14907): below the threshold
